Laboratory results reported in the supplement of paper PMC12764529.
± gives the half width of the 95% confidence interval.

Key:
[1] = folding stability dG unfold from trypsin proteolysis; higher = more stable
How it was run: (§1)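 Designed mini-proteins (under 80 residues, no cysteine) in a PA-tagged cDNA display construct were digested with trypsin and chymotrypsin. Each protease was used at 11 concentrations (threefold dilutions) plus a no-protease condition, followed by sequencing. K50 was inferred by Bayesian fitting of sequencing counts, and unfolding free energy was derived against a sequence-predicted unfolded-state K50 and a shared folded-state K50, per protease or combined. Only designs with AlphaFold2 dimer inter-PAE above 15 were kept.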

[2] = folding stability dG unfold from chymotrypsin proteolysis; higher = more stable
How it was run: as §1

[3] = folding stability dG unfold (combined trypsin and chymotrypsin); higher = more stable
How it was run: as §1

Sequence	folding stability dG unfold [1]	folding stability dG unfold [2]	folding stability dG unfold [3]
SAEMKIEKIEVKPLEEEPELVEITIKVKDPEKLKEALEKAGFTVEEVDEEEGKLTITMSREQLEKLLKASAG [r14_777_TrROS_Hall]	1.85 ± 0.1 kcal/mol	1.68 ± 0.14 kcal/mol	1.91 ± 0.31 kcal/mol
SAGGSAKRYFIMIDIRYPGDGKEIYPLVIPIPPGEPISIEDILDEIGFPPENADNVDIEIHTFRAKSAGGSA [r15_665_TrROS]	1.56 ± 0.078 kcal/mol	1.57 ± 0.14 kcal/mol	1.51 ± 0.22 kcal/mol
SAGGPFRVRISDEVIKELKKQGLKPGKKSVKITMQYPNGWVFRGTIKIPPANPKIPLKAEPVERLDDSAGGS [r16_497_TrROS]	0.429 ± 0.074 kcal/mol	0.386 ± 0.17 kcal/mol	0.482 ± 0.11 kcal/mol
SAGGMVIVFPAPKDISPDELRELIEAEVGPLAEELGLTEASIPIAKVEELPEGSRRVVAVIELRFDGSAGGS [r8_184_TrMRF]	0.977 ± 0.027 kcal/mol	0.332 ± 0.048 kcal/mol	0.718 ± 0.056 kcal/mol
SAGPTIMIPMPPKESLEEAVEKAIEWIREFFPDNLKPGKKIKIFVHVWDPDNGKQYWVTIEIPIPKGELSAG [r5_916_TrROS]	2.48 ± 0.22 kcal/mol	3.62 ± 0.057 kcal/mol	3.19 ± 0.25 kcal/mol
SAGGSAGGSAMTPVTIKVTLTNPATGSTTTKTIYVPEPNPSVEEIKKKLPSDWTVTSITLSSAGGSAGGSAG [r3_80_JUSTAS]	1.23 ± 0.045 kcal/mol	0.828 ± 0.16 kcal/mol	1.07 ± 0.16 kcal/mol
SAGGKKKVTIEIRKNPEEPGKYIIRVKVDGKEIEIEVSEEDLEEILAALKKLLPPGAKIEKIEIRELPSAGG [r13_519_TrROS_Hall]	2.38 ± 0.098 kcal/mol	3.85 ± 0.081 kcal/mol	3.45 ± 0.12 kcal/mol
SAMIVVEIEESRSPTSPERTVTVTVKKPDGTVVKTIPITVSGANPSATPEEVRALAEPIVEELVKKGLLSAG [r14_120_JUSTAS]	1.44 ± 0.026 kcal/mol	1.47 ± 0.045 kcal/mol	1.55 ± 0.13 kcal/mol
SAGGSAGGSAGMKKVLIIGGPKEELAKELKEKSPDIEVEFLDPSEDLEEYKKKFDIVIIESAGGSAGGSAGG [r17_225_JUSTAS]	-0.387 ± 0.09 kcal/mol	0.255 ± 0.072 kcal/mol	0.0867 ± 0.084 kcal/mol
SKTIVIELENIEDMTKEELKNLIKELAEKGETVKVTILNKDGKEVKTIEIKPGEIVPFPKGSKVLIKIEKSA [r9_264_TrROS_Hall]	1.42 ± 0.062 kcal/mol	1.49 ± 0.036 kcal/mol	1.37 ± 0.15 kcal/mol
SAGMTYTEKVFTSEVTLPEIGAKITITTTVKTPPSGETEPTVEVTFDLPETASEEVVKAVLEELNIPVESAG [r5_486_JUSTAS]	-0.411 ± 0.2 kcal/mol	1.13 ± 0.066 kcal/mol	0.628 ± 0.38 kcal/mol
SAGGSAGGSAPPDEGQKWVPVTFPIEFPLPDGNKVKIPIDFWYPKEDGKPIAMQIEWWAKNSAGGSAGGSAG [r3_484_TrROS]	0.373 ± 0.13 kcal/mol	1.42 ± 0.22 kcal/mol	0.72 ± 0.26 kcal/mol
SAGGSAGGSAGGKKVTITITIKVKEGEEITINGKKITVKPGETITITITITVPPKKKKKSAGGSAGGSAGGS [r10_949_TrROS_Hall]	1.57 ± 0.13 kcal/mol	2.38 ± 0.31 kcal/mol	2.19 ± 0.41 kcal/mol
SAGGSAGGSAGLKLLEKELRVLTYDPETGSLSESTLRVPVLLVPPVPVPVLDPNGGLTLASAGGSAGGSAGG [r11_307_TrMRF]	-0.696 ± 0.27 kcal/mol	0.407 ± 0.14 kcal/mol	0.143 ± 0.11 kcal/mol
SAGLDIKKIEFDPNGYLRIEVVYDKNISIKEIIEEIKKLTGATVEKVEVKPTKNGVKAIFILKIDKNLKSAG [r5_774_TrMRF]	1.12 ± 0.042 kcal/mol	3.052 ± 0.021 kcal/mol	2.6 ± 0.11 kcal/mol
SAGGMLTLPATVEGDELTLTLPTGATKTVSPNTTVKLPDGTVVSLTPVSPSSVSATVTPLPADATRPSAGGS [r16_277_JUSTAS]	0.208 ± 0.029 kcal/mol	1.601 ± 0.01 kcal/mol	1.21 ± 0.07 kcal/mol
SAGKIKKIEVKEVTNENGEKYKKITIEVEKEGKKVEIIVNKNGEKFIKVEKNGKTITLPLDEALELLKKSAG [r5_157_TrROS_Hall]	1.23 ± 0.088 kcal/mol	1.19 ± 0.13 kcal/mol	1.23 ± 0.3 kcal/mol
SAGGSAKLSAEEIAKLLKKLFPEVKEIKVKVEVNGKLYEVKIKVEKVKKKEKKKVEGMSEEEKKKLSAGGSA [r15_156_TrROS_Hall]	2.06 ± 0.19 kcal/mol	2.33 ± 0.1 kcal/mol	2.35 ± 0.32 kcal/mol
SAGGMTPAVTETTIELPASDPEAAIAALRAAGWELLARERGPDGSVRMVFAAPTRRVTVDFVGPAAASAGGS [r16_170_JUSTAS]	1.06 ± 0.014 kcal/mol	2.03 ± 0.039 kcal/mol	1.71 ± 0.032 kcal/mol
STIMIMFRSPEDLEKFLNEAKEMIRNGKNVPITIMAHGPNGRYWMFTIDIKMDPDGNPKIEIEWEPVPPDSA [r9_1023_TrROS]	3.23 ± 0.1 kcal/mol	4.24 ± 0.043 kcal/mol	3.89 ± 0.099 kcal/mol
SAGGPVFLGFEEALEFIEKAFENGEDVVVVARLPDGGLVVLEASGPDLDLRVVAVIPLPPPEEDPEKYSAGG [r13_839_TrMRF]	1.5 ± 0.033 kcal/mol	0.268 ± 0.14 kcal/mol	1.03 ± 0.091 kcal/mol

Sequence	folding stability dG unfold [1]	folding stability dG unfold [2]	folding stability dG unfold [3]
SAGGSAPIRIIKDPEKGTIMIRVPGPITVNQELKLRDENGKPWEIKNVEVERVGGRLIITMKVEPASAGGSA [r15_838_TrROS]	1.19 ± 0.052 kcal/mol	1.24 ± 0.19 kcal/mol	1.29 ± 0.11 kcal/mol
SAGGSAGGSAGGPMPVSVSPIGTKVEKTEEPLVVETTTTLSDAEGPPVTTTTTTVTPPSTSAGGSAGGSAGG [r11_129_JUSTAS]	1.27 ± 0.08 kcal/mol	1.33 ± 0.1 kcal/mol	1.35 ± 0.13 kcal/mol
SAGGSAGGSASMAPPEVLSLPVEILEKSPDGSVTVLVPETGEVLTFPSPKVNVTPDGTLNLSSAGGSAGGSA [r18_89_JUSTAS]	0.416 ± 0.042 kcal/mol	-0.611 ± 0.16 kcal/mol	0.0808 ± 0.1 kcal/mol
SAGDALKEAAKPGEEVTVRLRLTLTFTTETFTDDDGRERTVETVTVTVELEARVVAVDPETGELVIELRSAG [r5_5_TrROS_Hall]	2.56 ± 0.12 kcal/mol	4.19 ± 0.14 kcal/mol	3.52 ± 0.18 kcal/mol
SAGGSAGGSAGMKIKFPNGKVVEIHMDEDSGNIEIEFPDGKKKEINIPGMSIDDILDYLKSAGGSAGGSAGG [r11_729_TrROS]	1.56 ± 0.036 kcal/mol	1.46 ± 0.033 kcal/mol	1.59 ± 0.045 kcal/mol
SAGGVNPTDPAQATTTETTPSLVTLPNGEKVLVTTTTTTTPDGSTTTTTTTTNAATGATTSTTTTTASAGGS [r8_252_JUSTAS]	1.97 ± 0.14 kcal/mol	2.39 ± 0.14 kcal/mol	2.19 ± 0.14 kcal/mol
KKKILIFITGDNPELAERIRKELEELGYDVEVKVVTTPEEMEKAIEEAEKTDIVIVIHLPPALPLSPELAFS [r1_497_TrMRF]	2.58 ± 0.13 kcal/mol	0.709 ± 0.12 kcal/mol	1.9 ± 0.19 kcal/mol
EAFEKAIEAAIEAAEKGEKETEITLPLPDGKAIRVHATVEVKDGKPVRVDIHVELYGPNNVPYPFTLTITAS [r1_254_TrMRF]	2.37 ± 0.13 kcal/mol	2.83 ± 0.13 kcal/mol	2.38 ± 0.18 kcal/mol
SAGGSAGGIEVKIEGEIKPVKVTVSFSTANGDGNPKEYPVEKTYLVVDIKIEVNSPEAAKKINISAGGSAGG [r6_149_TrMRF]	1.37 ± 0.058 kcal/mol	3 ± 0.13 kcal/mol	2.51 ± 0.14 kcal/mol
SAGGSMKIVKIEKIDLAKLKPGDIIEVKLENGEIYRIRIEKNEDGKYTVYIYNKNGELVEEFEFDVSAGGSA [r2_323_TrROS_Hall]	2.27 ± 0.12 kcal/mol	4.25 ± 0.034 kcal/mol	3.84 ± 0.097 kcal/mol
SAWVIPFEVRLPGSPEQARRQVEEWADNIANRYQQNGFRVVDIKIDEIEPDNVRVRLTIQIVPPGQEIPSAG [r14_973_TrROS]	2.74 ± 0.08 kcal/mol	2.52 ± 0.054 kcal/mol	2.66 ± 0.14 kcal/mol
SAGGFGIKIDEFDPDGEFRISIYDPDTWQPIAEFRIKIKPVPPPPPVEKRPYKDDDGEPKTVTHPDDQSAGG [r13_9_TrROS]	0.542 ± 0.12 kcal/mol	1.73 ± 0.19 kcal/mol	1.43 ± 0.2 kcal/mol
SAGGSAGGSAGGGRVELELTFIREDGYAVKVRIEVDEDGNLRIEVEVVKLPPAASPEELSAGGSAGGSAGGS [r10_878_TrROS_Hall]	3.23 ± 0.14 kcal/mol	2.31 ± 0.072 kcal/mol	2.86 ± 0.088 kcal/mol
SAGGSAGGSAGGKKVKVIKVSVTYDPKTKKLTIKVEKTGKTYTIPLKEIELVNGYLKIKSAGGSAGGSAGGS [r10_942_TrROS_Hall]	1.78 ± 0.11 kcal/mol	2.45 ± 0.11 kcal/mol	2.21 ± 0.34 kcal/mol
SAGGSAGGSAGGTITIPIYLDDKWITITRIELSPPDGKIKIEFTFNNRPREFDIPIPPGASAGGSAGGSAGG [r7_477_TrROS]	1.9 ± 0.049 kcal/mol	2.71 ± 0.074 kcal/mol	2.36 ± 0.11 kcal/mol
SAGGSAKKPEVTVEIEIVLPKEELEELLEALRKLPGLKVEVEEVEVREDGYVRVKLRITLPPGVKPSAGGSA [r15_441_TrROS_Hall]	2.39 ± 0.062 kcal/mol	3.48 ± 0.046 kcal/mol	3.19 ± 0.12 kcal/mol
SAGGSARYYFIVIEIWQPGKPVKFIIVVPKEDPKKFESEINEMFPGYNIDIKVIPFPSPEEAEDLFSAGGSA [r15_889_TrROS]	2.26 ± 0.1 kcal/mol	2.97 ± 0.088 kcal/mol	2.74 ± 0.17 kcal/mol
SAGGSAGGMTLLIRDPETNELVEVTVEEKDGKLTLTVRNKKTGETTEIEIPLDEEPIEIVLLEPSAGGSAGG [r6_465_TrROS_Hall]	2.09 ± 0.12 kcal/mol	2.61 ± 0.021 kcal/mol	2.43 ± 0.12 kcal/mol
SAGGSAVTVVTVELTSPGSTHTITIPASEVEGLSLEEIEARLKALPEVSEITLTRSELPPLNPSLASAGGSA [r2_282_JUSTAS]	0.788 ± 0.042 kcal/mol	0.752 ± 0.012 kcal/mol	0.802 ± 0.046 kcal/mol
SAGGPNIELEFETYRDPDGMLVIKFHIRIKFGNKPVYIFVEGVIPPDGEAQIEDAYIFDADNGEWIPISAGG [r13_932_TrROS]	2.9 ± 0.25 kcal/mol	4.6 ± 0.15 kcal/mol	4.26 ± 0.29 kcal/mol
SAGDKIEIKFNIPMPEGPIRIMVWDNGKREEKDIPPGEEVTIKIDLPPGDDYRIAIYYPDGNMHEFPINSAG [r5_187_TrROS]	1.65 ± 0.17 kcal/mol	3.31 ± 0.14 kcal/mol	2.47 ± 0.25 kcal/mol
